Here are results for three molecules from paper PMC9463662, “Selection of DNA aptamer and its application as an electrical biosensor for Zika virus detection in human serum”.

Usually Kd stands for the free concentration of one partner at which half of the binding sites on the other are occupied at equilibrium, for simple one-to-one binding. Lower therefore signals a tighter complex.

Data set [1] deals with T1, Zika virus envelope protein (Zika virus, UniProt A0A221S5X1 1-403). Nature of the data set: bead-based fluorescence binding assay; protein on streptavidin beads. Particulars: protein: commercial.
Data set [2] has as its target albumin (bovine serum albumin in sensor test) (UniProt P02769 25-607). Nature of the data set: capacitance biosensor; bovine serum albumin.
In data set [3] the target is T1, Zika virus envelope protein. The data set is described as follows: capacitance biosensor; aptamer/MXene on Au micro-gap electrode; DIW or 10% human serum; LOD 38.14 pM in serum. The conditions noted are these: protein: commercial.

albumin (bovine serum albumin in sensor test), sequence (P02769 25-607): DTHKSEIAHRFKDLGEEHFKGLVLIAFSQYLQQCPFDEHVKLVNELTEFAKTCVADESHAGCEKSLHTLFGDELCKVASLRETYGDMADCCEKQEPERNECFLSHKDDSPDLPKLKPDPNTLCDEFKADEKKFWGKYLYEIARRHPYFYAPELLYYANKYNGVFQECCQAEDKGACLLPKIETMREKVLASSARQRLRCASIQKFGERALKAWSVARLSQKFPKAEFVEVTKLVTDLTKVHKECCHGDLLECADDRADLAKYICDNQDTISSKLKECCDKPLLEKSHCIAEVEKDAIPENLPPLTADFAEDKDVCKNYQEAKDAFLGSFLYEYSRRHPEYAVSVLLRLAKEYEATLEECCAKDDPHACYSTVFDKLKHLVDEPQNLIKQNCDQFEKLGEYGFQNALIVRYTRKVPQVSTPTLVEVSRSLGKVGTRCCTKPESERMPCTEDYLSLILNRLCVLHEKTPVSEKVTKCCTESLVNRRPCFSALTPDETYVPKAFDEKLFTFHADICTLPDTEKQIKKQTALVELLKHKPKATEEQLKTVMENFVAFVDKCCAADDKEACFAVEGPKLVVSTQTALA

B1: Zika-07 (Zika-7) aptamer, 5'-FAM (ssDNA)
DNA: TGACACCGTACCTGCTCTAGTGCGCACTGAACGATCCTGCGTCAAGTTCAAGGTTGTGAAGCACGCCAAGGGACTAT
In the case of B1, the Kd in data set [1] turned out to be 107 ± 1.9 nM.

B2: thiol-modified Zika-07 aptamer (ssDNA)
DNA: B1 DNA
modifications: 5'-SH
As for B2, the binding result was “no binding” in data set [2] and “binds” in data set [3].

B3: Zika-25 aptamer, 5'-FAM (ssDNA)
DNA: TGACACCGTACCTGCTCTAAGCACGCCAAGGGACTATAGGTTGACACCGTACCTGCTCTAAGCACGCCAAGGGACTAT
Regarding B3, the Kd in data set [1] is 226 ± 9.6 nM.
